Positions of bridges follow the written chain, without caps; N, C: chain ends. No end group written: not given here.
T1: CD62P (P-selectin) lectin domain (residues 1–117), wild type
T1 construct: CD62P (P-selectin) C-type lectin domain, residues 1-117; cDNA chemically synthesized, BamHI/EcoRI site of pET28a; also called CD62P lectin domain; C-type lectin domain of CD62P; not shown: His tag from pET28a ([residues removed]), N-terminal, kept
T1 chain: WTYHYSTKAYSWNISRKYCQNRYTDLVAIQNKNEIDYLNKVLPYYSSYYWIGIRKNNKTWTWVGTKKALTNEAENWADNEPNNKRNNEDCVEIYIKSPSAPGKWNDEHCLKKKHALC

B1: cyclic site 2 peptide of integrin β1 (residues 268–295, C281S) fused to GST (peptide)
chain: CKLGGIVLPNDGQSHLENNMYTMSHYYC
modifications: disulfide 1-28 (inferred); also: fused to GST
notes: also called cyclic site 2 peptide from β1; site 2 peptide from β1
B2: cyclic site 2 peptide of integrin β3 (residues 260–288, C273S) fused to GST (peptide)
chain: CRLAGIVQPNDGQSHVGSDNHYSASTTMC
modifications: disulfide 1-29 (inferred); also: fused to GST
notes: also called cyclic site 2 peptide from β3; site 2 peptide of β3

Target: T1, CD62P (P-selectin) lectin domain …
Assay: ELISA; wells coated with the CD62P lectin domain (20 μg/ml), blocked with BSA; site 2 peptides fused to GST (100 μg/ml); bound GST detected with HRP-conjugated anti-GST
Settings: both partners purified

Binder | binding result
B1 | binds
B2 | binds

From publication PMC10130748 (Life Science Alliance, 2023)
